This note sets out measurements from the supplement of paper PMC12636428.

The series relates to Saccharomyces cerevisiae. Briefly: transcriptional activation domain activity (GFP:mCherry ratio, weighted mean of sorted bins, harmonized to initial dataset scale) (arbitrary fluorescence ratio units); higher = stronger transcriptional activation. The following applies: beta-estradiol 1 µM; induction time 4 h. Summed up:
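For this assay, yeast diploids with a GFP reporter carried barcoded protein tiles at URA3, each fused to an estradiol-inducible synthetic transcription factor. Induction was a 1:5 dilution into SC with 1 uM beta-estradiol for 4 hours at 30 °C, followed by sorting into 8 bins by GFP:mCherry ratio and barcode sequencing. Tiles under 50 reads were dropped, and activation activity was calculated as the read-weighted mean of bin median fluorescence, averaged across barcodes and linearly mapped onto the initial dataset scale.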

For the sequence “MYLFFFFFLDWFFFVVIITIICILWIWAWDFWACLLGIGIGFACLFYSGWVLF”, the “transcriptional activation domain activity” value stood at 47800.
For “MYLFFLFYILEFAVRSESGPICASNTKCIGRYCVYCKCTSLLSRVLRLLFICC”, the “transcriptional activation domain activity” value turned out to be 64300.
For “MYLFVLYLFFFIIVIRLFMLLFCVYFSVIFCYLFTLVLLLLFIIFFKLIFILL” the value was 62600; for “MYLPKPGWLHVAGWLFILSLYLSIYIISYLISSYICNLCSFFCYLLLACILSF”, 49600; for “MYLQWASCPLLICVSCFYTSLIYFAIISMSSMILTLVCLDRSMCWYSGWIFSS”, 46000.
With “MYLWVLLQKVGLLLLLLLLLLLLLLLLLLHWLLHLLLLLLLLLLLLYQVCLQW” the figure was 23400.
For “MYMIFINPLLLMIILYIKLLPLMFPLLINLLILLIFLLYIHLLSIVFLQKFYI” the value was 60100; for “MYMSTIRSGHLQPVPSSSKLILFIFLFLFSLISLFFLVGSFPPFFLSYLWILC”, 31200.
“MYNLNLFYFSFFLSLSLFLFFFPLPFFFRSVWFANLFFVLLFLYYVPFLSHSC”: the “transcriptional activation domain activity” value is 58700.
For “MYNMLVCLAIEFLWQHLYFFLFLYLTLCCDTFQLILYTPLSMFLFFIFILLKK” the value was 16500; for “MYNNIHIPFFVLFLFFFFLSLFFFFFSLIFFFSFYCILTLCWYAFCLFFLKKN”, 34700.
With “MYNTALITIYLLLLLRRIFFTWSYLAYSFNFIATRVFARITMLMLVELFRQHD” the figure was 67400.
For the sequence “MYNTVLAWYCFIFAHVYSFLHCCFYYWFFLAFWLFGLLTYLSFVVGGVFFMPR”, the “transcriptional activation domain activity” value came to 53300.
For “MYPFLFFLSFLLFSSLTFLFSLLSFEFKFFFTFSSSFFFFCLTLCFFCQSFFF” the value was 36400; for “MYQIEALYLILTYKSIPFYHFNYFSIELIIKPTYLFLYLFFSYLFLHWLNLFD”, 35100.
For “MYRCYCGLLMVPWYPCAVVFHVCLCGVRWGCENGVIGVYVLGWWVLWFVVLFG”, the “transcriptional activation domain activity” value was 32600.
For “MYRLQCGVIYSLYVMCFMLLQMLLCVCVVSESFFFFLFLALIVWSPVYIILRV” the value was 41900.
For “MYRWISSIDAICVHLWGYMKNLACLLLTHIFYCLASMCLLLVDTLITGVGNIP” the value was 61100.
For “MYSFRLISLMLLSAIALVAANPLMIRIWPLRGGSLTFNLLLLFRWLDFQFVSH” the value was 59900; for “MYSIGVLTWKHDIGFFEDLLWSWCRVCFERYYTNVSPCTKLLSMELLLNCLLG”, 69100; for “MYSRIFIGLSFFLISFFISIIFLFICKEHSFSPIGFFLTRFLLFHVFSLFFTF”, 62800.
Regarding “MYTHALDPHDAANGLYSCLPCFYIFISTDDVARKIVLVPCIPLLKYALHAIQL”, the “transcriptional activation domain activity” value amounted to 61900.
For “MYTYTITFLSFISTIPLHSFLLFEQAYEYLCILLSLTVCLQTQLLLNICLLPF” the value was 73000; for “MYVCVYIFGCYLFGFMIFVYFFPIYFFNSLFSCSYFFFLLIYSFILFIYSVAA”, 44800.
With “MYVEIFFLSLVWRIIIVLSLTSKGVFFNITYLFFRFLFSLVLCIFFFLHFFSL” the figure was 43100; with “MYVGGVFSVSLFESVCYFVIFFSSLDLLLLLLLLFFSFLFFSFLFFFFSLVPS”, 44800; with “MYVISGFVFLIGLLLFVMLFDTTHLCVLVLFSFLYHSGSLCRPCHTPVILLYF”, 44000.
For “MYVLAISQTRAWTNLNLFRSCMVGLVNLCVILLKMLPIVVFCTLWYNVDLNIP” the value was 73400; for “MYVLARVRMFSSGSRLLRLDRVRGYMLWLILLVVYVYLALTCISFRPPFFYHS”, 71600.
With “MYVWYSLSFLFPPTSPSLFLFLFYLFIYSLFYFFFYFSPYFFSFFLSSYTLHY”, the “transcriptional activation domain activity” value worked out at 63000.
For “MYWNYPGFIWPLGFPWFFFFFFFRSGSLLPRPCPVDTVFHFQFFFFFFFFFFF” the value was 51300; for “MYYCLFFFFVSFCISLCFFYYYSQLCFFSTSFFAVSRGFFFISLSFLVCVWTI”, 57300; for “MYYCLFSFLFFLFAFPCVFLLLFTVFFSPYFFFAGFFFYLSLSLLVCVWTIDE”, 41600.
With “MYYDKRSAMLQGLLLMGPRACGFHWSCILAILGLATLVSVDLVQLSYHLPRAV” the figure was 32700.
For “MYYIIISYDYFLIILIPIIDTCYPFKDFCIIFFIYPLLLHYAIFYYLRLVFIY”, the “transcriptional activation domain activity” value was 45100.
For “MYYILMFLIYTCQLLLLLINLHWLAVACDTFPSWPLMQTNFYFCLLLLVTLFR” the value was 31900; for “MYYIVIYAFLYGIKYTHWIYFLSNNLVFWFLLLHFRHSHYGSLSYRYIIDHLL”, 62500.
Take “MYYLLLPLAYSLSHSVFFFFSVFLLRVLQYHGWWPFLLSSLCVFFLACVFVKG”: the “transcriptional activation domain activity” value was found to be 27100.
“MYYLYLSFCFLIVFFFFFFPLYCCCRLLFFSSSFVLFLSVLIILIPTFHAFFP”: the “transcriptional activation domain activity” value worked out at 67800.
With “NADGMDGEKFYKSIDSAYGFANSSLVHLLLHDQKLLMRLRYLRRLFFGAESDW” the figure was 48800; with “NAEYICHYKGGLIGKHFKSLAQVMPFLIQDLLLRTVLDGWTCIGELVVYVWHM”, 65800.
With “NAFGAYSTDPSNIAEGLNTVGFRSGFAFFFVSMGIMCLIYLVCSLRTNVCFFM” the figure was 26100; with “NAIISNLMLGMLLFCGSLYLLITFLPILSSDCPYSTPMSVPWWRILRALGAVG”, 37900; with “NANADAAAGNANADAGMANAGNNAAAGNANQAKGKGKKKNKAKGKAAGAGAGA”, 29500.
For “NANADSNIAGNPKNNDATIDNELTQILNEYNMNFNDNLGTSTSGKNKSACPSS” the value was 54200; for “NANNANTNANANNNAATTNANANGNGKKGKNNNNNANANANANANAAAAAAAG”, 18400.
Regarding “NANVKLCVDGKWDKMCLMCTGDGTSSGVWRLCERILGSARCVIESIGCWVVLC”, the “transcriptional activation domain activity” value worked out at 60600.
With “NAPTADTDIATNLGKERNENFGMLNYNYEALLHFNDEHFNELNSIDPALISKY” the figure was 107000; with “NASPAAVVATTATATPERAVSAAAGDNNASTLTKRGRGRPRKAAKHTQAQTQA”, 36500.
As to “NASVTREVPQFDTSANQMLSDIWSWIYYSEEFLAIPPSMVEGYDFSWQGLLGI”, the “transcriptional activation domain activity” value is 120000.
With “NAVIKDFACVNECLARCSHVITTRRIIYILQLRVHCVAYSLPILNLPLFFFSR” the figure was 55300.
With “NAVNKSRGMVKGSGRKLHQQKGTGRARMRDAQNPIRRGGGRAFAKTTARNWLV” the figure was 29500.
With “NCLKLGCDCLGMIHYFDGFICSHKGLPIKLENVICMHEQDNGLMWKHTHFRTN” the figure was 40800; with “NCLLHIMRFLPFLELKQFIIAYRRFDIYACAESAIHLQYLDFFNFWMDPSFLL”, 49700; with “NCMLRTIHLIWESNLSCTCIVNMLVLPCLHTLSITQCLYERKDKDPNPVILEA”, 59000.
Turning to “NCSFIFLMLNCILAAFCFYNLSSIMNGLVYFDQFSLIPPLHLGLVTLGMCVLL”, the “transcriptional activation domain activity” value worked out at 46400.
For “NCTNLPSVVVVGGSVPIDSQGLQIWSLLIYSIVLVPGLNLVVSSLIFLGIFWL” the value was 30000; for “NCVGHFTYGHFLRFLFYVDVACAYHLSMITWRVFHAMHASYWASPFTEMIFII”, 65500.
With “NCVNLSFQLLFGELVVFLISLYMSVLYGLLYMFFVAQLPPEVRLIPMMCSCWF” the figure was 59700; with “NDFEKLEFFNKYAKVNTNNDVNENNDLWNSYLQSMDDTTGKNSGNYQQVDNDD”, 35700; with “NDGNESNEDYLGNEKFYLNEILPDEESKLRWKRVFENSENDHDNEKNFLTDWE”, 39900.
With “NDLFAWPWGNPIDLDVAIALQETSIGCYNKRTTVFYANSCNTLLSLLVNKFLL” the figure was 33300.
In the case of “NDREDDGEDEEEDNGGGGRQQRRKKGSAQRAGKLKPATESDEDEDKPEEEADD”, the “transcriptional activation domain activity” value was 29200.
With “NDTKKNMSTSNLFPFSFSNTDLTALFTHPEGPNCTNTNNGNVDVCNRASTDAT” the figure was 51400; with “NEEEEEASDHEAEEPKPKKKRGRLAKEVDEEPEAPAPKKARGRPRKAVVKEED”, 24400.
For “NEEKGGKDAASRESAVHVYGTLGSRIGRGPRSPSVLSRSFHDIHDCLACVLVV” the value was 56900; for “NEENIRREQDAADEIAQKLRDDIRSRTGCDVSVGIGSNILQAKVALRKGKPAG”, 35200; for “NEEQTINLINYVLTCSNTVIRNTVFRNKVLNLLVSMILALKTPDYFIIFKIVV”, 74300.
With “NEGCKIITVFNGIFGIVYSFAPMCYFCLCIRVFFFALYKRHWYYHALLSLFWL” the figure was 70700; with “NEITIQDLNFLQFSSIPKLWENKTLEPGEEYHHSNGTNTDNNETTGADDTDDN”, 24500; with “NELAVLVDGLNRVLLTHKDDIGIISHVMLAYMIAATRFKRLFVSGGGYMLFMP”, 45800.
As for “NESGPGAADEDAEEDDEESDEDGAGRKRKKPKVEPKPKPERKAPAPAPADGEK”, the “transcriptional activation domain activity” value is < 6570.
With “NFDWWAKYNCESLRDAVIGFLTRDCLDSRVGYFRSVVRWIGCRLYFGLLIIFF” the figure was 72700; with “NFFLKDNAPVLQEYLAVFRHLLSFHDPELSSHLDTIGFMPDLYAIPWFLTLFT”, 16300.
